Test [1] addresses Human CD16A 158V (human). Briefly: ELISA. For orientation: In an ELISA, binding on a coated surface is turned into a signal by an enzyme label.
For a further test, the target named is T1, Human CD16B (human).
T1 chain: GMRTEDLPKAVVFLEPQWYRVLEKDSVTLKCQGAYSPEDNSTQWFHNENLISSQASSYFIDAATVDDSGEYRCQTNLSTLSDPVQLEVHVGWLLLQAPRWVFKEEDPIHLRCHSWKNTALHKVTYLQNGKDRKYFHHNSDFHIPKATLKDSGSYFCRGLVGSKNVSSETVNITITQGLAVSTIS
Briefly: ELISA.

Test [2] has as its target Human CD16A 158V (human). In words: BLI. (Biolayer interferometry detects binding as a change in optical thickness at a sensor tip.)
Target sequence in this assay (chain, as listed by the source): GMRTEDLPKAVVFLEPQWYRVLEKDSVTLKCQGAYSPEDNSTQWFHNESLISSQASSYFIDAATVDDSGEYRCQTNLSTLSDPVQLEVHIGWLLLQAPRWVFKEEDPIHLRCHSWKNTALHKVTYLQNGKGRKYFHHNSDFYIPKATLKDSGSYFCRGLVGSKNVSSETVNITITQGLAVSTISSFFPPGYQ
For test [3], the target named is Human CD16A 158F (human). In words: BLI.
Test [4] has as its target Human CD16A 158F (human). Briefly: ELISA.
Target sequence in this assay (chain, as listed by the source): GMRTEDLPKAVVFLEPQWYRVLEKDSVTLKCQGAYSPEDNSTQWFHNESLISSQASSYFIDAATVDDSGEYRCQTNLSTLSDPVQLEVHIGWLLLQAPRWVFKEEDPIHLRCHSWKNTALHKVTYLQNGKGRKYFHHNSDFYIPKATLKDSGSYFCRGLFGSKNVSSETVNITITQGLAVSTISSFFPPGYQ
Test [5] addresses Human CD16A 158V (human). Briefly: ELISA. The source holds these as a separate data set.

Like-named read-outs stand apart in the source and are kept apart here.

B1: BM130-92 (Margetuximab) (antibody)
chain 1: QVQLQQSGPELVKPGASLKLSCTASGFNIKDTYIHWVKQRPEQGLEWIGRIYPTNGYTRYDPKFQDKATITADTSSNTAYLQVSRLTSEDTAVYYCSRWGGDGFYAMDYWGQGASVTVSSASTKGPSVFPLAPSSKSTSGGTAALGCLVKDYFPEPVTVSWNSGALTSGVHTFPAVLQSSGLYSLSSVVTVPSSSLGTQTYICNVNHKPSNTKVDKRVEPKSCDKTHTCPPCPAPELVGGPSVFLLPPKPKDTLMISRTPEVTCVVVDVSHEDPEVKFNWYVDGVEVHNAKTKPPEEQYNSTLRVVSVLTVLHQDWLNGKEYKCKVSNKALPAPIEKTISKAKGQPREPQVYTLPPSRDELTKNQVSLTCLVKGFYPSDIAVEWESNGQPENNYKTTPLVLDSDGSFFLYSKLTVDKSRWQQGNVFSCSVMHEALHNHYTQKSLSLSPGK
chain 2: DIVMTQSHKFMSTSVGDRVSITCKASQDVNTAVAWYQQKPGHSPKLLIYSASFRYTGVPDRFTGSRSGTDFTFTISSVQAEDLAVYYCQQHYTTPPTFGGGTKVEIKRTVAAPSVFIFPPSDEQLKSGTASVVCLLNNFYPREAKVQWKVDNALQSGNSQESVTEQDSKDSTYSLSSTLTLSKADYEKHKVYACEVTHQGLSSPVTKSFNRGEC
Molecule B1 returned an EC50 with Human CD16A 158V [1] of 45.1 nM. Moreover, in the test with Human CD16B, the binding result is on record as “no binding”.

B2: CD16-VH-RM72 (antibody)
chain: EVQLVESGGGLVQPGGSLRLSCAASGFTFSNYGMSWVRQAPGKGLEWIGSIYYSGQTNYNPSLKSLVTISRDNSKNTLYLQMNSLRAEDTATYYCARESIDYWGQGTLVTVSS
As to B2, the Kd with Human CD16A 158V [2] came to 4.38 nM; with Human CD16A 158F [3], 4.58 nM. Besides, the EC50 was 1.89 nM in the test with Human CD16A 158F [4] and 1.86 nM in the test with Human CD16A 158V [5].

B3: BM156-01 (antibody)
chain: EVQLVESGGGLVQPGGSLRLSCAASGFTFSNYGMSWVRQAPGKGLEWIGSIYYSGSTNYNPSLKSLVTISRDNSKNTLYLQMNSLRAEDTATYYCARESIDYWGQGTLVTVSS
On to B3, for which the Kd in the test with Human CD16A 158V [2] came out at 20.6 nM; in the test with Human CD16A 158F [3], 5.15 nM. The figures for the EC50 with Human CD16A 158F [4] and in the test with Human CD16A 158V [5] were 7.66 nM and 4.57 nM, respectively.

B4: CD16-VH-RM80 (antibody)
chain: EVQLVESGGGLVQPGGSLRLSCAASGFTFSNYGMSWVRQAPGKGLEWIGSIYYDGSTNYNPSLKSLVTISRDNSKNTLYLQMNSLRAEDTATYYCARESIDYWGQGTLVTVSS
In the test with Human CD16A 158F [3], B4 gave an equilibrium dissociation constant (Kd) of 3.99 nM. Also, the figures for the EC50 with Human CD16A 158F [4] and with Human CD16A 158V [5] were 3.03 nM and 3.32 nM, respectively.

B5: CD16-VH-RM81 (antibody)
chain: EVQLVESGGGLVQPGGSLRLSCAASGFTFSNYGMSWVRQAPGKGLEWIGSIYYTGSTNYNPSLKSLVTISRDNSKNTLYLQMNSLRAEDTATYYCARESIDYWGQGTLVTVSS
Take B5: the figures for the Kd in the test with Human CD16A 158V [2] and in the test with Human CD16A 158F [3] were 2.69 nM and 2.45 nM, respectively. Further, the EC50 came to 1.25 nM with Human CD16A 158F [4] and 1.8 nM with Human CD16A 158V [5].

B6: CD16-VH-RM73 (antibody)
chain: EVQLVESGGGLVQPGGSLRLSCAASGFTFSNYGMSWVRQAPGKGLEWIGSIYYSGTTNYNPSLKSLVTISRDNSKNTLYLQMNSLRAEDTATYYCARESIDYWGQGTLVTVSS
For the molecule B6, the results for the Kd with Human CD16A 158V [2] and in the test with Human CD16A 158F [3] were 8.2 nM and 2.41 nM, respectively. Besides, the EC50 with Human CD16A 158F [4] is 3.29 nM; in the test with Human CD16A 158V [5], 4.2 nM.

B7: CD16-VH-RM75 (antibody)
chain: EVQLVESGGGLVQPGGSLRLSCAASGFTFSNYGMSWVRQAPGKGLEWIGSIYYSGDTNYNPSLKSLVTISRDNSKNTLYLQMNSLRAEDTATYYCARESIDYWGQGTLVTVSS
Turning to B7, the Kd in the test with Human CD16A 158V [2] worked out at 3.51 nM; with Human CD16A 158F [3] it was 2.62 nM. The EC50 with Human CD16A 158F [4] is 3.04 nM; in the test with Human CD16A 158V [5], 2.06 nM.

B8: CD16-VH-RM82 (antibody)
chain: EVQLVESGGGLVQPGGSLRLSCAASGFTFSNYGMSWVRQAPGKGLEWIGSIYYSVSTNYNPSLKSLVTISRDNSKNTLYLQMNSLRAEDTATYYCARESIDYWGQGTLVTVSS
The molecule B8 returned a Kd with Human CD16A 158F [3] of 5.26 nM. Further, the EC50 with Human CD16A 158F [4] was 3.29 nM; with Human CD16A 158V [5] it was 3.2 nM.

B9: CD16-VH-RM77 (antibody)
chain: EVQLVESGGGLVQPGGSLRLSCAASGFTFSNYGMSWVRQAPGKGLEWIGSIYYNGSTNYNPSLKSLVTISRDNSKNTLYLQMNSLRAEDTATYYCARESIDYWGQGTLVTVSS
For B9, the Kd came out at 5.31 nM with Human CD16A 158V [2] and 1.24 nM with Human CD16A 158F [3]. In addition, the values for the EC50 with Human CD16A 158F [4] and with Human CD16A 158V [5] were 1.21 nM and 1.42 nM, respectively.

B10: CD16-VH-RM76 (antibody)
chain: EVQLVESGGGLVQPGGSLRLSCAASGFTFSNYGMSWVRQAPGKGLEWIGSIYYSGETNYNPSLKSLVTISRDNSKNTLYLQMNSLRAEDTATYYCARESIDYWGQGTLVTVSS
Consider B10, for which the Kd was determined as 16.2 nM with Human CD16A 158V [2] and 6.06 nM in the test with Human CD16A 158F [3]. For the same molecule, the EC50 with Human CD16A 158F [4] came to 2.2 nM; in the test with Human CD16A 158V [5] it was 2.71 nM.

The EC50 is the concentration that produces a half-maximal response. The low end stands for higher potency in that assay, the high end for lower potency in that assay. A word on the Kd: it is the equilibrium constant for the complex coming apart. A high value points to lower affinity.

The values are drawn from patent publication US20260327314 (published 2026).
